From the nanobody polyreactivity screen of Harvey et al. (2022) come the findings set out here.

The nature of this data set: yeast display, Sf9 membrane polyspecificity reagent, FACS + sequencing; frameworks hold sequencing errors. The essentials:
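A nanobody's polyreactivity label depends on the gate it was sorted from. Yeast display cells were stained with 10% biotinylated, detergent-solubilized Sf9 membrane reagent for 1 hour at 4 °C, enriched on streptavidin microbeads and sorted by FACS. The low and high (top ~1%) gates were set on anti-HA fluorescence for expression and streptavidin fluorescence for reagent binding.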
Consider “QVQLVESGGGLVQAGGSLRLSCAASGLIFPRYTMGWYRQAPGKERELVAAIRGTGGSTYYADSVKGRFTISRDNPKNTVYLQLNSLKPEDTAVYYCATRGKSHGQQFNYWGQGTQVTVSS”, for which the “polyreactivity (PSR sort gate)” value is “high polyreactivity”.

Turning to “QVQLVESGGGLVQAGGSLRLSCAASGLIFPVYAMGWYRQAPGKEREFVASIWRGGTTYYADSVKGRFTISRDNAKNTVYLQMNSLKPEDTAVYYCAARYYPRGLVFPFTKYDYWGQGTQVTVSS”, the “polyreactivity (PSR sort gate)” value is given as “high polyreactivity”.

On to “QVQLVESGGGLVQAGGSLRLSCAASGLIFPYYTMGWYRQAPGKERELVAAISWRGGGTFYADSVKGRFTISRDNAKNTVYLQMNSLNPEDTAVYYCAAQLYPYRWYYWGQGTQVTVSS”, for which the “polyreactivity (PSR sort gate)” value is “high polyreactivity”. “QVQLVESGGGLVQAGGSLRLSCAASGLIFQSYAMGWYRQAPGKERELVAVITWSGTSTYADSVKGRFTISRVNAKNTVYLQMNSLKPEDTAVYYCAASKYGSFTNFGYWGQGTQVTVSS”: the “polyreactivity (PSR sort gate)” value is given as “low polyreactivity”.

With “QVQLVESGGGLVQAGGSLRLSCAASGLIFQYYAMGWSRQAPGKERELVASISWSGSSTYYADSVKGRFTISRDNAKNTVYLQMISLKPEDTAVYYCAAGWGRGWYDYWGQGTQVTVSS”, the “polyreactivity (PSR sort gate)” value was “high polyreactivity”.

“QVQLVESGGGLVQAGGSLRLSCAASGLIFRAYAMGWYRQAPGKERELVAAISRRGGSTYYADSVKGRFTISRDNANNTVYLQMNSLKPEDSAVYYCNKDSRSWPFKYDYWGQGTQVTVSS”: the “polyreactivity (PSR sort gate)” value is “high polyreactivity”. Under “QVQLVESGGGLVQAGGSLRLSCAASGLIFRPYAMGWSRQAPGKERELVAAITSGGSTDYADSVKGRFTISRDNAKNTVYLQMNSLKPEDTAVYYCNADIYPHDGYPWQGDYDYWGQGTQVTVSS” stands “low polyreactivity”. Regarding “QVQLVESGGGLVQAGGSLRLSCAASGLIFRPYAMGWYRQAPGKERELVAAITSGGSTDYADSVKGRFTISRDNAKNTVYLQMNSLKPQDTAVYYCNADTIPDGEDRYVYWGQGTQVTVSS”, the “polyreactivity (PSR sort gate)” value is “low polyreactivity”. Under “QVQLVESGGGLVQAGGSLRLSCAASGLIFRPYTMGWYRPAPGKERELVATISGSGASTNYADSVKGRFTISRDNAKNTVYLQMNSLKPEDTAVYYCKGRSYSRMYYWGQGTQVTVSS” stands “high polyreactivity”; under “QVQLVESGGGLVQAGGSLRLSCAASGLIFRRYVLGWYRQAPGKEWELVAAISATGSRTYYADSVKGRFTISRDNAKNTVYLQRNSLKPEDNAVYYCAAYRGPRIYRYDYWGQVTQVTVSS”, “high polyreactivity”.

For the sequence “QVQLVESGGGLVQAGGSLRLSCAASGLIFRTYAMGWYRQAPGKERELVAAISSSGGSTYYADSVKGRFTISRDNAKNTVYLQMNSLKPEDTAVYYCNVGSRRRRYLDRYEYWGQGTQVTVSS”, the “polyreactivity (PSR sort gate)” value is on record as “high polyreactivity”. On to “QVQLVESGGGLVQAGGSLRLSCAASGLIFRTYTMGWNRQAPGKERELVAVISTSGGTTYYADSVKGRFTISRDNAKNTVYLQMNSLKPEDTAVYYCAKRYYWKYAEYDYWGQGSQVTVSS”, for which the “polyreactivity (PSR sort gate)” value is given as “high polyreactivity”. Turning to “QVQLVESGGGLVQAGGSLRLSCAASGLIFRWYAMGWYRQAPGKEREMVAAISRRGGTTNYADSVKGRFTISRDNAKNTVYLQMTSLKPEDTAVYYCAADYQSVGGAEYDYWGQGTQVTVSS”, the “polyreactivity (PSR sort gate)” value is “high polyreactivity”.

In the case of “QVQLVESGGGLVQAGGSLRLSCAASGLIFRWYAMGWYRQAPGKEWELVAAISRRGGTTNYADSVKGRFTISRDNAKKTVYLQMNSLKPEDTAVYYCAADYQSVGGAEYDYWGQGTQVTVSS”, the “polyreactivity (PSR sort gate)” value is “high polyreactivity”. “QVQLVESGGGLVQAGGSLRLSCAASGLIFRWYDMGWYRQAPGKDRELVAAITRGGGTNYADSVKGRFTLSRDNAKNTVYLQMNSLKPEDTAVYYCAARLIKYGRAWTFGGYDYWGQGTQVSVSS”: the “polyreactivity (PSR sort gate)” value is given as “high polyreactivity”.

For the sequence “QVQLVESGGGLVQAGGSLRLSCAASGLIFRYYAMGWYRQAPGKERELVAAIDGSDGITYYADSVKGRFTISRDNAKNTVYLQMNSLKPEDTEVYYCDAAFYYWGQGTQVTVSS”, the “polyreactivity (PSR sort gate)” value is on record as “low polyreactivity”.

As for “QVQLVESGGGLVQAGGSLRLSCAASGLIFRYYAMGWYRQAPGKERELVATIRGGGSTYYADSVKGRFTISRDNAKNTVYLQMNSLKPEDTAVYYCAADPYSYGARGSRGDYWGQGTQVTVSS”, the “polyreactivity (PSR sort gate)” value was “low polyreactivity”. As for “QVQLVESGGGLVQAGGSLRLSCAASGLIFRYYAMGWYRQAPGKESELVAAITSGGGTYYADSVKGRFTISRDNAKNTVYLQMNSLKPEDTAFYYCAVGSYGHPKHRRNLDYWGQGTQVTVSS”, the “polyreactivity (PSR sort gate)” value is on record as “low polyreactivity”.

On to “QVQLVESGGGLVQAGGSLRLSCAASGLIFSDYAMGWYRQAPGKERELVAAISGIGTRTSYADSVKGRFTISRDNAKNTVYLQMNSLKPEDTAVYYCAARYYGFPSTLKYDYWGQGTQVTVSS”, for which the “polyreactivity (PSR sort gate)” value was “high polyreactivity”. As to “QVQLVESGGGLVQAGGSLRLSCAASGLIFSEYAMGRSRQAPWKERELVAAIRSDGGSTYYADSVKGRFTISRDNAKNSVYLQMNSLKPEDTAVYYCNAPYRRSAKFRRYGYDYWGQGTQVTVSS”, the “polyreactivity (PSR sort gate)” value is “high polyreactivity”. On to “QVQLVESGGGLVQAGGSLRLSCAASGLIFSGYAMGWYRQAPGKERELVAAINSGTSTTYADSVKGRFTISRDNAKNTVYLQMNSLKPEDTAVYYCNTPHNQDKPYPGYDYWGQGTQVTVSS”, for which the “polyreactivity (PSR sort gate)” value is “low polyreactivity”. Under “QVQLVESGGGLVQAGGSLRLSCAASGLIFSGYAMGWYRQAPGKERELVAAISRGGGRTSYADSVKGRFTISRDNAKNTVYLQMNSLKPEDTAVYYCAKDPRYLRYDHWGQGTQVTVSS” stands “high polyreactivity”; under “QVQLVESGGGLVQAGGSLRLSCAASGLIFSHYTMGWYRQAPGKERELVAAITSSGGSTYYADSVKGRFTISRDNAKNTVYLQMNSLKPEDTAVYYCNVDYYEPSWYDDDYWGQGTQVTVSS”, “low polyreactivity”; under “QVQLVESGGGLVQAGGSLRLSCAASGLIFSKNVMGWYRQAPGKERELVAAISQRGGSTYYADSVKGRFTISRDNAKNTVYLQMNSLKPEDTAVYYCAARSRRRDDYWGQGTQVTVSS”, “high polyreactivity”. On to “QVQLVESGGGLVQAGGSLRLSCAASGLIFSNNAMGWYRQAPGKERELVAAITSSGSRTYYADSVKGRFTISRDNAKNTVYLEMNRLKPEDTAVYYCAAYEVPYQRRYGYWGQGTQVTVSS”, for which the “polyreactivity (PSR sort gate)” value is reported as “high polyreactivity”.

On to “QVQLVESGGGLVQAGGSLRLSCAASGLIFSQYAMGWYRQAPGKEREFVARISSSGGSTYYADSVKGRFTISRDNAKNTVYLQMNSLKPEDTAVYYCAAVGGRNIRVWFRTKYDYWGQGTQVTVSS”, for which the “polyreactivity (PSR sort gate)” value is recorded as “low polyreactivity”. With “QVQLVESGGGLVQAGGSLRLSCAASGLIFSRYAMGWYRQAPGKERELVAAISSSGGTTYYADSVKGRFTISRDNAKNTVYLQMNSLKPEDTAVYYCAAGVAWRFYSWGQGTQVTVSS”, the “polyreactivity (PSR sort gate)” value is “high polyreactivity”. In the case of “QVQLVESGGGLVQAGGSLRLSCAASGLIFSSNAMGWARQAPGKEREWVAAITSGGSTNYADSVKGRFTISRDNAHNTVYLQMNSLKPEDTAVYYCNAVSPHYFGGSYDYWGQGTQVTVSS”, the “polyreactivity (PSR sort gate)” value was “low polyreactivity”. Consider “QVQLVESGGGLVQAGGSLRLSCAASGLIFSSNAMGWYRQAPGKERELVATISWSGGSTYYADSVKGRFTISRDNAKNTVYLQMNSLKPEDTAVYYCCWSALNGYDYWGQGTQVTVSS”, for which the “polyreactivity (PSR sort gate)” value is listed as “high polyreactivity”.

Take “QVQLVESGGGLVQAGGSLRLSCAASGLIFSSYAMGWYSQAPGKERELVAAITSGGNTNYADSVKGRFTISRDNAKNTVYLHMNSLKPEDTAVYYCSAVWWTYVAAPGYDYWGQGTQVTVSS”: the “polyreactivity (PSR sort gate)” value is recorded as “low polyreactivity”. Regarding “QVQLVESGGGLVQAGGSLRLSCAASGLIFSSYPKGWYRQAPGKEWVLVAAITRTGGDTYYADSVKGRFTISRDNAQNSFYLQMNSLKPEDTAVYYCSSSGPQYYSRNFDYWGQGTQVTVSS”, the “polyreactivity (PSR sort gate)” value was “low polyreactivity”. For “QVQLVESGGGLVQAGGSLRLSCAASGLIFSTYDMGWYRQAPGKDRELVAAISTGGSTYCADSVKGRFTMSRDNAKYTVYLQMNSLKPEDTAVYYCAAGYTYHSWPLYYWDYNYWGQGTQVTVSS”, the “polyreactivity (PSR sort gate)” value is reported as “low polyreactivity”. Next, “QVQLVESGGGLVQAGGSLRLSCAASGLIFSVYAMGWYRQAPGKERELVARISINGGSTYYADSVKGRFTISRDNAKNTVYLQMNSLKPEDTAVYYCNAVRITHYVRYYYWGQGTQVTVSS”: “high polyreactivity”; “QVQLVESGGGLVQAGGSLRLSCAASGLIFSYNAMGWYRQAPGKERELVAAISANGGRTYYADSVKGRFTISRDNAKNTVSLQMNSLKPEDTAVYYCAAQGSRKLFYTDSGYWGQGTQVSVSS”: “high polyreactivity”; “QVQLVESGGGLVQAGGSLRLSCAASGLIFTGYAMGWYRQAPGKERELVAAITSGGGTNYADSVKGRFTISRDNAKNTVYLQMNSLKPEDTAVYYCAVDFGHYYLYSITSYLWYWDGYDYWGQGTQVTVSS”: “low polyreactivity”. “QVQLVESGGGLVQAGGSLRLSCAASGLIFTKAMGWYRQAPGKEREFVAAINSSGGSTYADSVKGRFTISRDNAKNTVYLQMNSLKPEDTAVYYCAARVNYLYEYWGQGTQVTVSS”: the “polyreactivity (PSR sort gate)” value is “low polyreactivity”.

In the case of “QVQLVESGGGLVQAGGSLRLSCAASGLIFTPYAMGWYRQAPGKERELVAAINYGGSRTYYADSVKGRFTISRDNAKNTVYLQMNSLKPEDTAVYYCNVVKRSFRYDYWGEGTQVTVSS”, the “polyreactivity (PSR sort gate)” value is given as “high polyreactivity”. “QVQLVESGGGLVQAGGSLRLSCAASGLIFTSYAMGWYRQAPGKERELVAAISYSGGTTIYADSVKGRFTISRDYAKNTVYLQMNSVKPEDTAVYYCAADSLSTTHDTLGYDRDDYWGQGSQVTVSS”: the “polyreactivity (PSR sort gate)” value was “low polyreactivity”. Under “QVQLVESGGGLVQAGGSLRLSCAASGLIFTYYAMGWYRQAPGKERELVAAINWSGGSTYYADSVKGRFTISRDNAKNTVYLQMNSLKPEDTAVYYCAAAYANYRFYYWGQGTQVTVSS” stands “high polyreactivity”.

Consider “QVQLVESGGGLVQAGGSLRLSCAASGLIFVGYAMGWYRQAPGTERELVAAITSGGSTNYADSVKGRFTISRDNAKNTVYLQMNSLKPEDTAVYYCAASDAIPLRYDYWGQGTQVTVSS”, for which the “polyreactivity (PSR sort gate)” value was “low polyreactivity”.

Regarding “QVQLVESGGGLVQAGGSLRLSCAASGLIFVHYAMGWYRQAPGKERELVAAISAGGGSTYYADSVKGRFTISRDNAKNTVYLQMNSLKPEDTAVYYCNARVVNYFRPRTGAREYDYWGQGTQVTVSS”, the “polyreactivity (PSR sort gate)” value was “high polyreactivity”.
